We go through one substance from patent publication US20180236141A1.

The assay addresses integrin α2β1 on platelets (UniProt P17301). The assay can be described thus: cell-based or functional assay.

Collagen type I (ligand) registered a platelet aggregation greater than 90%.
